In patent publication WO2009104736A1 (dated 2009):

B1: monoclonal antibody 3.4A10 (antibody of Example 1) (antibody, V domains shown)
VH: EVQLLESGGGLVQPGGSRKLSCAASGFTFSSFGVHWFRQAPEKGLEWVAYISSGSSTIYYADTVKGRFTISRDNPKNTLFLQMASLRSEDTAMYYCAPYGSSPFPYWGQGTLVTVST
VL: ELQLTQSPASLAVSLGQRATISCRASESVDSYGYNFMHWYQQKPGQPPKLLIYLASNLESGVPARFSGSGSRTDFTLTIDPVEADDAATYYCQQNNEDPLTFGAGTKLELKR
notes: Mouse IgG2b from a hybridoma, purified from ascites; also called TAPIR antibody

Experiments:
[1] = molecular target: amyloid β 1-42 protein (Aβ 1-42) (UniProt P05067); experiment: SPR competition, Biacore J; Aβ 1-42 on a CM5 chip saturated with 3.4A10 (competitor), then 3.4A10 and 4G8 mixed 20:1; set-up: unit not given here
Aβ 34-42 = molecular target: T1, Aβ 34-42 (UniProt P05067 705-713); experiment: dot blot of peptides on nitrocellulose
T1 construct: domain: Aβ 34-42; Positions count on Aβ
T1 peptide (looked up): LMVGGVVIA

Aβ 25-35 = molecular target: T2, Aβ 25-35 (UniProt P05067 696-706); experiment: dot blot of peptides on nitrocellulose
T2 construct: domain: Aβ 25-35; Positions count on Aβ; also called product code 4309-v
T2 peptide (looked up): GSNKGAIIGLM

amyloid β 1-42 protein (Aβ 1-42), sequence (P05067 672-713 limits assumed): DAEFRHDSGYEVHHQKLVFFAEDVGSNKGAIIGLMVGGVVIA

| enhanced reaction (response level) [1] | binding result (Aβ 34-42) | binding result (Aβ 25-35) | Molecule |
| --- | --- | --- | --- |
| > 2000 |  |  | mouse anti-human Aβ monoclonal antibody 4G8 |
|  | no binding (tested: 1 μg/ml antibody) | no binding (tested: 1 μg/ml antibody) | B1 |
